Results reported in patent US9102755B2, “Highly stabilized epidermal growth factor mutants” (PnP Biopharm Co., Ltd., priority 2013, dated 2015).

Columns and labels:
[1] = Structure and thermal stability (Tm) by circular dichroism; type: physicochemical; settings: 0.1 mg/ml; for Structure change: circular dichroism 190-250 nm, 20 mM sodium phosphate pH 5.5, 20° C., versus wild-type EGF; for Tm (melting temperature): circular dichroism, 20° C. to 95° C. at 1° C./min
Protocol: The structure and thermal stability of the purified EGF mutant were measured through a circular dichroism analysis using a J-810 spectrometer (JASCO). As the wild-type EGF, the purified EGF prepared in Example 2 was used. In order to analyze the structure, each EGF was dissolved in 20 mM sodium phosphate (pH 5.5) to be uniformly a final concentration of 0.1 mg/ml. And then, the dissolved EGF solution was added to 0.1 cm cell, and then its structure was analyzed under the conditions of, as 190 nm to 250 nm region, band width 1 nm, response 0.25 sec, data pitch 0.1 nm, scanning speed 20 nm/min, cell length 1 cm, accumulation 8 times, and a temperature of 20° C.
In order to analyze the thermal stability, a wavelength of 200 nm was determined through a comparison analysis of far-UV at the Tm (melting temperature) of 20° C. and 95° C., and progressed in a concentration of 0.1 mg/ml in 0.1 cm cell. As the conditions, it was measured at 20° C. to 95° C. under condition of 1° C./min.
The structure is changed at the band of about 195 nm when generating a folding-unfolding phenomenon. Using it, the melting temperature (Tm) was measured in the range of 20 to 95° C., and thus the accurate Tm value was analyzed. As a result, as for the structure change, most mutants had the similar structure as the wild-type EGF, and thus there were few changes. […] It can be confirmed that the thermal stabilities of M2 and M3 were improved by 87° C.

[2] = Solubility of wild-type and mutant EGFs in 20 mM sodium phosphate (pH 5.5); type: physicochemical
Protocol: 1 mg of the respective wild-type and mutant EGFs prepared was dissolved in 1 ml of 20 mM sodium phosphate (pH 5.5 that is the similarly pH environment as cosmetics). In order to remove undissolved EGF, the mixture thus obtained was centrifuged and then supernatant was obtained. The concentration of the supernatant thus obtained was measured by using a Bradford method and UV method.

| Substance | Structure change [1] | Tm (melting temperature) [1] | Solubility ([2]; 1 mg in 1 ml 20 mM sodium phosphate pH 5.5, supernatant, Bradford and UV method) [µg/mL] | Solubility (Comparison with wild-type %) ([2]; 20 mM sodium phosphate pH 5.5, relative to wild-type EGF) [%] |
| --- | --- | --- | --- | --- |
| A-4-1: EGF mutant, fourth serine substituted with glutamic acid (SEQ ID NO: 62) (NSDEECPLSHDGYCLHDGVCMYIEALDKYACNCVVGYIGERCQYRDLKWWELR; not fully specified; Epidermal growth factor; UniProt P01133 971-1023, looked up, variant S4E) | No change | (76° C.) | – | – |
| A-8-2: EGF mutant, eighth leucine substituted with serine (SEQ ID NO: 63) (NSDSECPSSHDGYCLHDGVCMYIEALDKYACNCVVGYIGERCQYRDLKWWELR; not fully specified; Epidermal growth factor; UniProt P01133 971-1023, looked up, variant L8S) | No change | (76° C.) | 699.1 | 137 |
| A-8-3: EGF mutant, eighth leucine substituted with proline (SEQ ID NO: 64) (NSDSECPPSHDGYCLHDGVCMYIEALDKYACNCVVGYIGERCQYRDLKWWELR; not fully specified; Epidermal growth factor; UniProt P01133 971-1023, looked up, variant L8P) | No change | (76° C.) | – | – |
| B-19-2: EGF mutant, 19th valine substituted with serine (SEQ ID NO: 67) (NSDSECPLSHDGYCLHDGSCMYIEALDKYACNCVVGYIGERCQYRDLKWWELR; not fully specified; Epidermal growth factor; UniProt P01133 971-1023, looked up, variant V19S) | No change | (76° C.) | – | – |
| B-19-4: EGF mutant, 19th valine substituted with aspartic acid (SEQ ID NO: 69) (NSDSECPLSHDGYCLHDGDCMYIEALDKYACNCVVGYIGERCQYRDLKWWELR; not fully specified; Epidermal growth factor; UniProt P01133 971-1023, looked up, variant V19D) | No change | (76° C.) | – | – |
| B-19-5: EGF mutant, 19th valine substituted with lysine (SEQ ID NO: 70) (NSDSECPLSHDGYCLHDGKCMYIEALDKYACNCVVGYIGERCQYRDLKWWELR; not fully specified; Epidermal growth factor; UniProt P01133 971-1023, looked up, variant V19K) | No change | (76° C.) | – | – |
| C-26-2: EGF mutant, 26th leucine substituted with serine (SEQ ID NO: 73) (NSDSECPLSHDGYCLHDGVCMYIEASDKYACNCVVGYIGERCQYRDLKWWELR; not fully specified; Epidermal growth factor; UniProt P01133 971-1023, looked up, variant L26S) | No change | (76° C.) | – | – |
| D-34-1: EGF mutant, 34th valine substituted with serine (SEQ ID NO: 75) (NSDSECPLSHDGYCLHDGVCMYIEALDKYACNCSVGYIGERCQYRDLKWWELR; not fully specified; Epidermal growth factor; UniProt P01133 971-1023, looked up, variant V34S) | No change | (76° C.) | – | – |
| D-34-3: EGF mutant, 34th valine substituted with aspartic acid (SEQ ID NO: 77) (NSDSECPLSHDGYCLHDGVCMYIEALDKYACNCDVGYIGERCQYRDLKWWELR; not fully specified; Epidermal growth factor; UniProt P01133 971-1023, looked up, variant V34D) | No change | (76° C.) | – | – |
| D-34-4: EGF mutant, 34th valine substituted with lysine (SEQ ID NO: 78) (CNCKVGYIGE) | No change | (76° C.) | – | – |
| D-35-5: EGF mutant, 35th valine substituted with serine (SEQ ID NO: 79) (CNCVSGYIGE) | No change | (76° C.) | – | – |
| D-35-7: EGF mutant, 35th valine substituted with aspartic acid (SEQ ID NO: 81) (CNCVDGYIGE) | No change | (76° C.) | – | – |
| D-35-8: EGF mutant, 35th valine substituted with lysine (SEQ ID NO: 82) (CNCVKGYIGE) | No change | (76° C.) | – | – |
| D-38-9: EGF mutant, 38th isoleucine substituted with serine (SEQ ID NO: 83) (CNCVVGYSGE) | No change | (76° C.) | – | – |
| D-38-11: EGF mutant, 38th isoleucine substituted with glutamic acid (SEQ ID NO: 85) (CNCVVGYEGE) | No change | (76° C.) | – | – |
| D-38-12: EGF mutant, 38th isoleucine substituted with aspartic acid (SEQ ID NO: 86) (CNCVVGYDGE) | No change | (76° C.) | – | – |
| E-48-3: EGF mutant, 48th lysine substituted with arginine (SEQ ID NO: 90) (RCQYRDLRWWELR) | No change | (76° C.) | – | – |
| E-50-4: EGF mutant, 50th tryptophan substituted with serine (SEQ ID NO: 91) (RCQYRDLKWSELR) | No change | (76° C.) | – | – |
| E-50-5: EGF mutant, 50th tryptophan substituted with histidine (SEQ ID NO: 92) (RCQYRDLKWHELR) | No change | (76° C.) | – | – |
| E-50-6: EGF mutant, 50th tryptophan substituted with glutamic acid (SEQ ID NO: 93) (RCQYRDLKWEELR) | No change | (76° C.) | – | – |
